From patent US20210270842A1 (DYAX, published 2021)

T1: intact high molecular weight kininogen (HMWK) (Homo sapiens, UniProt P01042 19-644)
T1 construct: also called intact HMWK; 1-chain HMWK
T1 sequence: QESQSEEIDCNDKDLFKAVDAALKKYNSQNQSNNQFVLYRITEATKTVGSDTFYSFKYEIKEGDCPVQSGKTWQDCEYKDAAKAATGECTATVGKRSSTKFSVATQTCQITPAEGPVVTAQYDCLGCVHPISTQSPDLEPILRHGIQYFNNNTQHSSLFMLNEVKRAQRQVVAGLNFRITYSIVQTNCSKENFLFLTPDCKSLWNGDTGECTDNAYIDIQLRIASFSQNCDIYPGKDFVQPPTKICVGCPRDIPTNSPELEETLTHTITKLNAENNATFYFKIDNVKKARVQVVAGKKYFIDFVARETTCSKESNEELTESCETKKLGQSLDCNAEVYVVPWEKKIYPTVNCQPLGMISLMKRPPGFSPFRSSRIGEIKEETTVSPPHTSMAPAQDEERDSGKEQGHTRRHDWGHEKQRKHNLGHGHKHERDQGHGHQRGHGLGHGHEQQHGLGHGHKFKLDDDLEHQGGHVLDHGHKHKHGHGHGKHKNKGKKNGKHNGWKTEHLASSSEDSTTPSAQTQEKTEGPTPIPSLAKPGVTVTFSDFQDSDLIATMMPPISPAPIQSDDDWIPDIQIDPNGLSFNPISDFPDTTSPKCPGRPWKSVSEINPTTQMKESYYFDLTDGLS

B1: 559B-M0038-F04 (Fab, V domains shown)
VH: EVQLLESGGGLVQPGGSLRLSCAASGFTFSKYEMMWVRQAPGKGLEWVSSISPSGGYTMYADSVKGRFTISRDNSKNTLYLQMNSLRAEDTAVYYCARHRSKWNDAPFDSWGQGTLVTVSS
VL: DIQMTQSPSSLSASVGDRVAITCRASQSIDTYLNWYQQKPGKAPKLLIYAASKLEDGVPSRFSGSGTGTDFTLTIRSLQPEDFASYFCQQSYSSPGITFGPGTKVEIK
B2: 559B-M0038-H03 (Fab, V domains shown)
VH: EVQLLESGGGLVQPGGSLRLSCAASGFTFSKYDMHWVRQAPGKGLEWVSRISSSGGKTEYADSVKGRFTISRDNSKNTLYLQMNSLRAEDTAVYYCAREYRYCTANTCSLYGMDVWGRGTTVTVSS
VL: DIQMTQSPSSLSASVGDRVAITCRTSQGVRSDFAWYQQTPGKAPRRLIYAAFILDNGVPSRFSGSGSGTEFTLTISSLQPEDFATYYCQQSYSTPLTFGGGTKVEMK
B3: 559B-M0039-D08 (Fab, V domains shown)
VH: EVQLLESGGGLVQPGGSLRLSCAASGFTFSNYAMQWVRQAPGKGLEWVSWIYSSGGPTYYADSVKGRFTISRDNSKNTLYLQMNSLRAEDTAVYYCARGLPGQPFDYWGQGTLVTVSS
VL: QSELTQPPSASGTPGQRVTISCSGSSSNIGNNYVYWYQQFPGTAPKLLIYRNNQRPSGVPDRFSGSKSGTSASLAISGLRSEDEADYYCATWDDRLSGWVFGGGTKLTVL
B4: 559B-M0021-G11 (Fab, V domains shown)
VH: EVQLLESGGGLVQPGGSLRLSCAASGFTFSPYPMTWVRQAPGKGLEWVSGISSSGGFTPYADSVKGRFTISRDNSKNTLYLQMNSLRAEDTAVYYCARMVRGVIKAFDIWGQGTMVTVSS
VL: QYELTQPPSASGTPGQRVTISCSGSSSNIGSHYVFWYQQLPGAAPKLLIYRNNQRPSGVPDRFSGSKSGTSASLAISGLRSEDEADYYCATWDNSLSAWVFGGGTKLTVL
B5: 559B-M0067-E02 (Fab, V domains shown)
VH: EVQLLESGGGLVQPGGSLRLSCAASGFTFSLYPMVWVRQAPGKGLEWVSSIYPSGGFTTYADSVKGRFTISRDNSKNTLYLQMNSLRAEDTAVYYCARSSRYYYYGMDVWGQGTTVTVSS
VL: QYELTQPPSMSGTPGQRVTISCSGSSSNIGSEYVYWFQQLPGTAPKLLIYRNDQRPSGVPDRFSGSKSGTSASLAISGLRSEDETDYYCSTWDDTLRTGVFGGGTKVTVL
B6: 559B-M0019-E12 (Fab, V domains shown)
VH: EVQLLESGGGLVQPGGSLRLSCAASGFTFSGYNMYWVRQAPGKGLEWVSRISPSGGWTSYADSVKGRFTISRDNSKNTLYLQMNSLRAEDTAVYYCTRGQWMDWWGQGTMVTVSS
VL: DIQMTQSPSSLSASVGDRVIITCRASQNITGYLNWYQQKPGKAPNLLIYDASRMNTGVPSRFRGSGSGTDYILTIYKLEPEDIGTYFCQHTDDFSVTFGGGTKVDLK
B7: 559B-M0061-G06 (Fab, V domains shown)
VH: EVQLLESGGGLVQPGGSLRLSCAASGFTFSKYTMWWVRQAPGKGLEWVSVISSSGGKTYYADSVKGRFTISRDNSKNTLYLQMNSLRAEDTAVYYCARTANRAFDIWGQGTMVTVSS
VL: DIQMTQSPAALSVSPGERATLSCRASQSVSSDLAWYQQKPGQAPRLLIHGASTRATGIPARFSGSGSGREFTLTISSLQSEDFAVYYCQQYNDWPPLFGPGTKVNIK
B8: 559B-M0044-C05 (Fab, V domains shown)
VH: EVQLLESGGGLVQPGGSLRLSCAASGFTFSIYQMYWVRQAPGKGLEWVSSIYSSGGRTFYADSVKGRFTISRDNSKNTLYLQMNSLRAEDTAVYYCATRGSWYVGGNEYFQHWGQGTLVTVSS
VL: QSVLTQSPSLSLSPGQTASIPCSGDTLGNKFVSWYQQKPGQSPVLVIYQDTKRPSGIPERFSGSNSGNTATLTITGTQAMDEADYYCQVWDSNSYAFGPGTKVTVL
B9: 559B-M0003-C08 (Fab, V domains shown)
VH: EVQLLESGGGLVQPGGSLRLSCAASGFTFSPYMMYWVRQAPGKGLEWVSSISPSGGKTWYADSVKGRFTISRDNSKNTLYLQMNSLRAEDTAVYYCARLGGSSSYYYYYYYGMDVWGQGTTVTVSS
VL: QSALTQSPSASGTPGQRVTISCSGSSSNIGGNTVNWYQQFPGTAPKLLIYSNNQRPSGVPDRFSGSKSGTSASLAISGLQSEDEAIYYCASWDDRLNGHWVFGGGTRLTVL
B10: 559B-M0039-H06 (Fab, V domains shown)
VH: EVQLLESGGGLVQPGGSLRLSCAASGFTFSAYDMHWVRQAPGKGLEWVSSIWPSGGGTYYADSVKGRFTISRDNSKNTLYLQMNSLRAEDTAVYYCARGDYDYGDFTDAFDIWGQGTMVTVSS
VL: QSALTQPASVSGSPGQSITISCTGTSSDVGSYNLVSWYQQHPGKAPKLMIYEGSKRPSGVPDRFSGSKSGNTASLIISGLQAEDEADYYCCSYAGSYSYVFGTGTRVTVL
B11: 559B-M0068-C07 (Fab, V domains shown)
VH: EVQLLESGGGLVQPGGSLRLSCAASGFTFSSYQMHWVRQAPGKGLEWVSGIYSSGGSTPYADSVKGRFTISRDNSKNTLYLQMNSLRAEDTAVYYCARGHHGMDVWGQGTTVTVSS
VL: DIQMTQSPSSVSASVGDRVTITCRASQGISSWLAWYQQKPGKAPKLLIYAASNLQSGVPSRFSGSGSGTDFTLTISSLQPEDFATYYCQKYNIAPYTFGQGTKLEIK
B12: 559B-X0004-B05 (Fab, V domains shown)
VH: EVQLLESGGGLVQPGGSLRLSCAASGFTFHYRMMWVRQAPGKGLEWVSYISSSGGYTAYADSVKGRFTISRDNSKNTLYLQMNSLRAEDTAVYYCAAKRNRAFDIWGQGTMVTVSS
VL: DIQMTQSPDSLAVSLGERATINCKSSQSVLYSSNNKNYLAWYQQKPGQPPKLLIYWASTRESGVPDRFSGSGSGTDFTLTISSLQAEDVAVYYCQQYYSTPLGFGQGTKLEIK
B13: 559B-M0047-H01 (Fab, V domains shown)
VH: EVQLLESGGGLVQPGGSLRLSCAASGFTFSFYMMYWVRQAPGKGLEWVSSISSSGGFTRYADSVKGRFTISRDNSKNTLYLQMNSLRAEDTAVYYCARVRGLAVAAPDYWGQGTLVTVSS
VL: QSELTQPASVSGSPGQSITISCIGTSSDIGTYNYVSWYQQHPGKAPKLMIYDVNTRPSGVSDRFSGSKSGNTASLTISGLQAEDEADYYCSSYTTSVTWVFGGGTTLTVL
B14: 559B-M0044-E09 (Fab, V domains shown)
VH: EVQLLESGGGLVQPGGSLRLSCAASGFTFSQYSMGWVRQAPGKGLEWVSSIYSSGGSTQYADSVKGRFTISRDNSKNTLYLQMNSLRAEDTATYYCARTRRGWFGEDYYYYMDVWGKGTTVTVSS
VL: DIQMTQSPSSLSASVGDRITITCRASQGIRNDVGWYQQKPGKAPQRLIYAASSLQSGVPSRFSGSGSGTEFTLTISSLQPEDFATYYCLQHNSYPLTFGGGTKVEIK
B15: 559B-M0036-G12 (Fab, V domains shown)
VH: EVQLLESGGGLVQPGGSLRLSCAASGFTFSRYYMAWVRQAPGKGLEWVSGIVPSGGQTGYADSVKGRFTISRDNSKNTLYLQMNSLRAEDTAVYYCARTRRGWFGEDYYYYMDVWGKGTLVTVSS
VL: DIQMTQSPGTLSLSPGERATVSCRASQSVGSTYLAWYQHKPGQAPRLLIYGASSRATGIPDRFSGSGSGTDFTLTISSLEPEDFAIYYCQHFHTSPPGITFGQGTRLEIK
B16: 559B-M0042-E06 (Fab, V domains shown)
VH: EVQLLESGGGLVQPGGSLRLSCAASGFTFSMYKMSWVRQAPGKGLEWVSVISPSGGRTYYADSVKGRFTISRDNSKNTLYLQMNSLRAEDTAVYYCARGTRTSGLDYWGQGTLVTVSS
VL: QSALTQPASVSGSPGQSITISCTGTSSDVGGYKYVSWYQQHPGKAPKLVIYEVSNRPSGVSNRFSGSKSGNTASLTISGLQAEDEADYYCSSYTSSTTVVFGGGTKLTVL
B17: 559B-M0048-D12 (Fab, V domains shown)
VH: EVQLLESGGGLVQPGGSLRLSCAASGFTFSRYQMTWVRQAPGKGLEWVSSIGSSGGFTNYADSVKGRFTISRDNSKNTLYLQMNSLRAEDTAVYYCARLPANFYYYMDVWGKGTTVTVSS
VL: DIQMTQSPSSLSASVGDRVTITCRASQNIYSFLNWYQQKPGKAPKLLIYATSSLQSGVPSRFSGSGSGTDFTLTISSLQPEDFASYYCQQNYNIPWTFGQGTKVEIK
B18: 559B-M0017-H08 (Fab, V domains shown)
VH: EVQLLESGGGLVQPGGSLRLSCAASGFTFSPYWMHWVRQAPGKGLEWVSVISPSGGGTGYADSVKGRFTISRDNSKNTLYLQMNSLRAEDTAVYYCARESRGSGSHEDYWGQGTLVTVSS
VL: DIQMTQSPATLSLSPGERATLSCRASQSVSSYLAWYQQKPGQAPRLLIYGASNRGTGIPARFSGSGSGTEFTLTISSLQSEDFAVYFCQQYKNWPNLTFGGGTKVDIK

These binders were tested against T1, intact high molecular weight kininogen … (assay: ELISA: Fab coated on 96-well plate, LowCross block, biotinylated antigen, streptavidin-HRP; signal over uncoated well).
Experimental: Thirty-six purified Fab clones (see Table 2 below) were assessed for binding to cleaved HWMK, intact HMWK, and LWMK using the immunoassay described in Example 1. Specifically, each of the purified Fab clones was immobilized on 96-well assay plates at a concentration of […]) in a total volume of 100 μL in PBS and incubated overnight at 2-8° C. The assay plates were blocked using LowCross blocking buffer. Biotinylated intact HMWK, biotinylated cleaved HMWK or biotinylated LMWK ([…]) was added to each well in a total volume of 100 μL and incubated for 2 hours prior to washing with a wash buffer. HRP-labeled streptavidin was added to each well at a concentration of 100 ng/mL, and the signal was developed using Ultra TMB Substrate. The signal to noise ratio was calculated using the signal observed upon the addition of the biotinylated protein to an uncoated well. (FIG. 2, panels A and B). Based on the ELISA results, the antibodies can be divided among 5 categories (Table 2).
B1: binds.
B2: binds.
B3: binds.
B4: binds.
B5: binds.
B6: binds.
B7: binds.
B8: binds.
B9: binds.
B10: binds.
B11: binds.
B12: binds.
B13: binds.
B14: binds.
B15: binds.
B16: binds.
B17: binds.
B18: binds.
